Series [1] has as its target Dynamin-Related Protein 1 (Drp1) isoform 2 (human). Description: SEC; gel filtration of the purified untagged isoforms; data not shown.
Series [2] concerns the molecule itself. The description is as above.
Series [3] deals with the molecule itself. Description: SEC; Drp1 (1 uM) incubated with GTP (1 mM) without liposomes in KCl buffer with 4 mM MgCl2, 30 min, 37 C; Sephadex S200; fractions immunoblotted with anti-Drp1. A general note: Size exclusion chromatography separates by hydrodynamic size, large species first.

“And” between values parts separate entries of the source, which are not always exact repeats. Equal entries are not always repeated.

In general, stoichiometry N refers to the number of molecules, sites or subunits per partner or assembly.

As for “Dynamin-Related Protein 1 (Drp1) isoform 2 (natural protein)”, the stoichiometry N in series [1] is 2 and 4.

B1: Dynamin-Related Protein 1 (Drp1) isoform 3 (natural protein, human, UniProt O00429-4 1-699, looked up)
chain: MEALIPVINKLQDVFNTVGADIIQLPQIVVVGTQSSGKSSVLESLVGRDLLPRGTGIVTRRPLILQLVHVSQEDKRKTTGEENGVEAEEWGKFLHTKNKLYTDFDEIRQEIENETERISGNNKGVSPEPIHLKIFSPNVVNLTLVDLPGMTKVPVGDQPKDIELQIRELILRFISNPNSIILAVTAANTDMATSEALKISREVDPDGRRTLAVITKLDLMDAGTDAMDVLMGRVIPVKLGIIGVVNRSQLDINNKKSVTDSIRDEYAFLQKKYPSLANRNGTKYLARTLNRLLMHHIRDCLPELKTRINVLAAQYQSLLNSYGEPVDDKSATLLQLITKFATEYCNTIEGTAKYIETSELCGGARICYIFHETFGRTLESVDPLGGLNTIDILTAIRNATGPRPALFVPEVSFELLVKRQIKRLEEPSLRCVELVHEEMQRIIQHCSNYSTQELLRFPKLHDAIVEVVTCLLRKRLPVTNEMVHNLVAIELAYINTKHPDFADACGLMNNNIEEQRRNRLARELPSAVSRDKVASGGGGVGDGVQEPTTGNWRGMLKTSKAEELLAEEKSKPIPIMPASPQKGHAVNLLDVPVPVARKLSAREQRDCEVIERLIKSYFLIVRKNIQDSVPKAVMHFLVNHVKDTLQSELVGQLYKSSLLDDLLTESEDMAQRRKEAADMLKALQGASQIIAEIRETHLW
notes: ORF amplified by PCR and cloned into pTYB1; numbers count on: isoform 3; also called Variant 3; Isoform-3 WT; source: E. coli Rosetta, purified (chitin resin with thiol-induced cleavage, Q sepharose, Sephadex S200)
As for B1, the “stoichiometry N” value in series [2] is 2 and 4.

B2: Drp1 isoform 3 K557-560-569-571A (4KA mutant) (natural protein, human, UniProt O00429-4 1-699, looked up)
chain: MEALIPVINKLQDVFNTVGADIIQLPQIVVVGTQSSGKSSVLESLVGRDLLPRGTGIVTRRPLILQLVHVSQEDKRKTTGEENGVEAEEWGKFLHTKNKLYTDFDEIRQEIENETERISGNNKGVSPEPIHLKIFSPNVVNLTLVDLPGMTKVPVGDQPKDIELQIRELILRFISNPNSIILAVTAANTDMATSEALKISREVDPDGRRTLAVITKLDLMDAGTDAMDVLMGRVIPVKLGIIGVVNRSQLDINNKKSVTDSIRDEYAFLQKKYPSLANRNGTKYLARTLNRLLMHHIRDCLPELKTRINVLAAQYQSLLNSYGEPVDDKSATLLQLITKFATEYCNTIEGTAKYIETSELCGGARICYIFHETFGRTLESVDPLGGLNTIDILTAIRNATGPRPALFVPEVSFELLVKRQIKRLEEPSLRCVELVHEEMQRIIQHCSNYSTQELLRFPKLHDAIVEVVTCLLRKRLPVTNEMVHNLVAIELAYINTKHPDFADACGLMNNNIEEQRRNRLARELPSAVSRDKVASGGGGVGDGVQEPTTGNWRGMLATSAAEELLAEEASAPIPIMPASPQKGHAVNLLDVPVPVARKLSAREQRDCEVIERLIKSYFLIVRKNIQDSVPKAVMHFLVNHVKDTLQSELVGQLYKSSLLDDLLTESEDMAQRRKEAADMLKALQGASQIIAEIRETHLW
notes: Dynamin-related protein 1 (Drp1), human, splice variant 3 (lacking 37 residues in the B insert), all four B insert lysines replaced by alanine; numbers count on: isoform 3; also called Drp1-4KA; Drp1 4KA mutant; source: E. coli Rosetta, purified (chitin resin with thiol-induced cleavage, Q sepharose, Sephadex S200)
As to B2, in series [3], the binding result is on record as “binds”.

Source of the values: publication PMC4103857, “Specific Interaction with Cardiolipin Triggers Functional Activation of Dynamin-Related Protein 1” (PLoS ONE, 2014).
